From patent US6602687B1, “DNA encoding human ciliary neurotrophic factor and method for producing the protein encoded thereby” (Regeneron Pharmaceuticals, Inc., priority 1989, dated 2003)

B1: NGF: mouse nerve growth factor (protein, UniProt P01139 122-241, looked up)
Beta-nerve growth factor: SSTHPVFHMGEFSVCDSVSVWVGDKTTATDIKGKEVTVLAEVNINNSVFRQYFFETKCRASNPVESGCRGIDSKHWNSYCTTTHTFVKALTTDEKQAAWRFIRIDTACVCVLSRKATRRG
B2: recombinant human CNTF: human ciliary neurotrophic factor expressed in E. coli (protein, UniProt P26441 1-200, looked up)
Ciliary neurotrophic factor: MAFTEHSPLTPHRRDLCSRSIWLARKIRSDLTALTESYVKHQGLNKNINLDSADGMPVASTDQWSELTEAERLQENLQAYRTFHVLLARLLEDQQVHFTPTEGDFHQAIHTLLLQVAAFAYQIEELMILLEYKIPRNEADGMPINVGDGGLFEKKLWGLKVLQELSQWTVRSIHDLRFISSHQTGIPARGSHYIANNKKM

Key:
[1] = test system: Ventral spinal cord neurons; assay: Neurofilament (NF) assay in ventral spinal cord neuron cultures; type: cell-based, rat; details: CNTF 10 ng/ml, NGF 50 ng/ml at plating; day 7
Experimental: (§1) Sprague-Dawley rats (HSD or Zivic-Miller) were used for all experiments. Pregnant rats (E14) were sacrificed as described in 10.1.1.
Spinal cords were removed aseptically from rat embryos as described in 10.1.2. The cord tissues were minced into small pieces and incubated in 0.1% trypsin (GIBCO) and 0.01% deoxyribonuclease type 1 (Sigma) at 37° C. for 20 minutes. Trypsin solution was then removed, rinsed and replaced with medium consisting of 45% Eagle's minimum essential medium (MEM), 45% Ham's nutrient mixture F12 (F12), 5% fetal calf serum (GIBCO), 5% horse serum (GIBCO) glutamine (2 mM), penicillin G (0.5 U/ml), and streptomycin (0.5 ug/ml). […] Total cell number yielded was determined by hemocytometer counting in the presence of trypan blue. […]
After fixation of the cells in 4% paraformaldehyde at 4° C. for 2 hours, the cultures were then permeabilized and blocked according to the procedures described in Doherty et al. (1984, J. Neurochem. 42:1116-1122). Neurofilament protein was detected using a monoclonal antibody RT97 (Wood and Anderton, 1981, Biosci. Rep. 1:263-268) at a 1:1000 dilution. The reaction product was visualized using O-phenylenediamine (OPD) as a substrate and optical density was measured at 490 nm.

[2] = test system: Mediodorsal (MD) spinal cord neurons; assay: E14 rat mediodorsal spinal cord neuron cultures in defined medium; type: cell-based; details: CNTF 2 μl/ml (recombinant rat, E. coli extract), NGF 50 ng/ml at plating; day 7; Bradford
From the text: (§2) Sprague-Dawley rats (HSD) were used for all experiments. Pregnant rats were sacrificed by carbon dioxide asphyxiation, and the embryos were rapidly removed and placed in ice-cold Puck's saline G for further dissection.
(§3) Spinal cords were removed aseptically from rat embryos on the 14th day of gestation. The spinal cord was severed caudal to the bulb, freed of sensory ganglia and meninges. The cord was then subdivided into ventral and mediodorsal segments for separate cultures. The cord tissues were minced into small pieces and mechanically dissociated by trituration through a Pasteur pipet in defined culture medium consisting of 50% basal medium Eagle (BME; Gibco) and 50% Ham's nutrient mixture F12 (Gibco) supplemented with glucose (33 mM), glutamine (2 mM, NaHCO3 (15 mM), HEPES (10 mM), insulin (25 μg/ml), transferrin (100 μg/ml) putrescine (60 μM), progesterone (20 nM), Na selenite (30 nM), penicillin G (0.5 μg/ml), streptomycin (0.5 μg/ml), and bovine serum albumin (2.5 μg/ml). Trituration was repeated twice and the supernatants were pooled and filtered through a nylon (Nitex, Tetko) filter (40 μm). Total cell number yielded was determined by hemocytometer counting in the presence of trypan blue. Dissociated ventral cells were then plated at a density of 0.5 million cells/35 mm dish coated with poly-D-lysine (10 μg/ml). Dissociated mediodorsal cells were plated at a density of 1.5 million/35 mm dish coated with poly-D-lysine (10 μg/ml), poly-L-ornithine (10 μg/ml), or poly-L-ornithine with laminin (5 μg/ml). Treatments to these cultures were added at the time of plating. Cultures were maintained at 37° C. in a 95% air/5% CO2 atmosphere at nearly 100% relative humidity. Culture medium was changed every three to four days.

[3] = test system: GABAergic neurons (hippocampal cultures); assay: Effect of other neurotrophic factors on GABAergic hippocampal neurons in culture; type: cell-based, rat
Experimental: Hippocampi were dissected from E18-19 rat embryos of Sprague-Dawley rats, and collected in F10 medium. The tissues were minced, rinsed twice with F10 medium (Gibco) and trypsinized with 0.25% trypsin (Gibco) for 20 minutes at 37° C. Trypsin was inactivated by the addition of a serum-containing medium composed of minimal essential medium (MEM) supplemented with fetal calf serum (FCS, 10%), glutamine (2 mM), penicillin (25 U/ml) and streptomycin (25 ug/ml). Dissociated cells obtained by gentle trituration were collected and centrifuged at low speed (500 rpm) for 30 seconds. The centrifugation was repeated twice, and the cell pellets were then resuspended in serum-containing medium. The cells were then plated onto 6 mm wells or 35 mm dishes that were coated with polyornithine (10 ug/ml) and laminin (10 ug/ml). In most of the experiments, the cells were plated at a low density of approximately 71,000 cells/cm^2. Five to six hours following the plating of cells, medium was changed to a serum-free medium containing 1% N3 and penicillin-streptomycin (25 units/ml and 25 ug/ml, respectively), at which time CNTF was added. Medium was changed every three to four days, with re-addition of the factor. […]

[4] = test system: AchE-containing ventral spinal cord neurons; assay: Count of AchE-containing neurons in ventral spinal cord cultures; type: cell-based, rat; details: CNTF 10 ng/ml at plating; 7 days
Experimental: as §1
Spinal cords were removed aseptically from rat embryos as described in 10.1.2. The cord tissues were minced into small pieces and incubated in 0.1% trypsin (GIBCO) and 0.01% deoxyribonuclease type 1 (Sigma) at 37° C. for 20 minutes. Trypsin solution was then removed, rinsed and replaced with medium consisting of 45% Eagle's minimum essential medium (MEM), 45% Ham's nutrient mixture F12 (F12), 5% fetal calf serum (GIBCO), 5% horse serum (GIBCO) glutamine (2 mM), penicillin G (0.5 U/ml), and streptomycin (0.5 ug/ml). This was then mechanically dissociated twice by gentle trituration through a Pasteur pipet in the same medium, and the supernatants were pooled and filtered through a nylon filter (Nitex, Tetko; 40 um). Total cell number yielded was determined by hemocytometer counting in the presence of trypan blue. Dissociated ventral cells were then plated at a density of approximately 50,000 cells/cm^2 on dishes coated with poly-L-ornithine (10 ug/ml) and laminin (5 ug/ml). Treatments were given on the day of plating, except for delayed addition experiments in which treatments were given on days 2 or 6. Cultures were maintained at 37° C. in 95% air/5% CO2 atmosphere at nearly 100% relative humidity. Culture medium was changed every 3 to 4 days. […]

[5] = test system: Ventral spinal cord neurons; assay: E14 rat ventral spinal cord neuron cultures in defined medium; type: cell-based; details: CNTF 2 μl/ml, NGF 50 ng/ml at plating; day 7
From the text: as §2, §3

[6] = test system: Ventral spinal cord neurons; assay: Choline acetyltransferase (CAT) activity in ventral spinal cord cultures; type: cell-based, rat; details: CNTF 10 ng/ml, NGF 50 ng/ml, FGF 50 ng/ml at plating; after 7 days in culture
Experimental: as §1
Spinal cords were removed aseptically from rat embryos as described in 10.1.2. The cord tissues were minced into small pieces and incubated in 0.1% trypsin (GIBCO) and 0.01% deoxyribonuclease type 1 (Sigma) at 37° C. for 20 minutes. Trypsin solution was then removed, rinsed and replaced with medium consisting of 45% Eagle's minimum essential medium (MEM), 45% Ham's nutrient mixture F12 (F12), 5% fetal calf serum (GIBCO), 5% horse serum (GIBCO) glutamine (2 mM), penicillin G (0.5 U/ml), and streptomycin (0.5 ug/ml). This was then mechanically dissociated twice by gentle trituration through a Pasteur pipet in the same medium, and the supernatants were pooled and filtered through a nylon filter (Nitex, Tetko; 40 um). Total cell number yielded was determined by hemocytometer counting in the presence of trypan blue. Dissociated ventral cells were then plated at a density of approximately 50,000 cells/cm^2 on dishes coated with poly-L-ornithine (10 ug/ml) and laminin (5 ug/ml). Treatments were given on the day of plating, except for delayed addition experiments in which treatments were given on days 2 or 6. Cultures were maintained at 37° C. in 95% air/5% CO2 atmosphere at nearly 100% relative humidity. Culture medium was changed every 3 to 4 days. A mitotic inhibitor, cytosine arabinoside (Ara C; 0.5 uM), was added on day 2 to reduce the number of nonneuronal cells. On day 7, cells were harvested for measurements of choline acetyltransferase (CAT; Fonnum, 1975 J. Neurochem. 24:407-409) and protein (Bradford, 1976, Annal. Biochem. 72:248-254) levels or fixed in 4% paraformaldehyde for NF assay (Doherty et al., 1984, J. Neurochem. 42:1116-1122) and immunocytochemistry. Some cultures were grown in defined medium consisting of 50% F12 and 50% MEM, glutamine (2 mM), insulin (5 ug/ml), transferrin (100 ug/ml), progesterone (20 nM), putrescine (10 uM), and sodium selenite (30 nM) (Bottenstein and Sato, 1979, PNAS 76:514-517). In these cultures sera-containing medium was replaced with defined medium on day 1.
Cultures were harvested by lysing the cells in a 20 mM Tris-HCl (pH 8.6) solution containing 0.1% Triton X-100. Two microliters of the cell lysate was removed and assayed for CAT activity according to the micro-Fonnum procedure (Fonnum, 1975, J. Neurochem. 24:407-409). The final substrate composition consisted of 0.2 mM [1-^14C] Acetyl-CoA (NEN, 54.4 mCi/mmol), 300 mM NaCl, 8 mM choline bromide, 20 mM EDTA, and 0.1 mM neostigmine in 50 mM NaH2PO4 (pH 7.4) buffer. At these enzyme and substrate concentrations, the enzymatic reaction was linear for 90-120 minutes. The specificity of the induction for CAT was tested by the addition of a specific inhibitor of CAT activity, N-hydroxyethyl-4-(1-napthylvinyl) pyridium (HNP), during the assay (White and Cavallito, 1970, J. Neurochem. 17:1579-1589).

[7] = test system: E8 dorsal root ganglion neurons; assay: Survival and neurite outgrowth of dorsal root ganglion neurons / DRG assay with E. coli protein extracts; type: cell-based; details: protein extracts of E. coli carrying human CNTF sequence in pCP93
Experimental: In addition, protein extracts were prepared from the same cells lysed by treatment with lysozyme followed by three cycles of freezing and thawing. […] No such activity could be detected in control extracts from the same host cells carrying the plasmid vector without the rCNTF gene.
Human CNTF sequence, engineered to lack intron sequences, has been inserted into the pCP93 vector and used to transform competent E. coli.

E10 chick DRG = assay: Fiber outgrowth from explants of E10 chick embryo dorsal root ganglia; type: cell-based
Experimental: Biological activity of recombinant CNTF was assayed on explants of chick embryo dorsal root ganglia (DRG) and dissociated cultures of ciliary ganglion (CG) neurons as described in Lindsay and Rohrer (1985, Devel. Biol 112:30-48). Briefly, DRG were dissected from chick embryos of 10 days incubation (E10) and 5-6 ganglia were explanted in 1 ml of a collagen gel matrix in 35 mm tissue culture dishes. After the gel had set, 1 ml of tissue culture growth medium F14 (Imperial Labs., U.K.) supplemented with 5% heat-inactivated horse serum (GIBCO) was added before adding human CNTF (1-20 l) to a final concentration of 100 pg to 100 ng/ml. CG were dissected from E8 chick embryos and incubated for 30 min in 0.25% trypsin (Worthington) in calcium- and magnesium-free phosphate buffered saline. […] In explant cultures CNTF activity was determined by assessing the extent of fiber outgrowth in treated cultures compared to controls. Fiber outgrowth was scored on a scale of 0 to 5+, by comparing cultures to photographs of a dose-response of explanted DRG and NGF. In dissociated CG neuron cultures, CNTF activity was determined by counting at 48 hr the percentage of process-bearing neurons in control and CNTF-treated cultures. […]

[8] = test system: E8 chick ciliary ganglion neurons; assay: Survival of dissociated E8 chick ciliary ganglion neurons; type: cell-based; details: increasing amounts of pure protein
From the text: Ciliary neurotrophic factor activity may be evaluated using any CNTF-sensitive in vivo or in vitro system known in the art. For example, and not by way of limitation, in vitro systems have been developed which measure CNTF activity by quantitating 24-hour survival of embryonic (E8) chick ciliary ganglion (CG) neurons in monolayer cultures.
For example, ciliary ganglia may be collected from E8 chick embryos, dissociated (yielding approximately 20,000 cells per ganglion) and then diluted in HEBM medium containing 20 percent horse serum as described in Varon et al. (1979, Brain Res. 173:29-45). About fifty microliters of cell suspension containing neurons (2,000 cells) may then be seeded into microliter dishes and putative CNTF activity may be added. Culture plates may then be maintained at 37° C. in 5% CO2 for 24 hours, after which the cultures may be fixed by the addition of 200 μl 2 per cent glutaraldehyde in HEBM medium, and the number of surviving neurons may be determined visually by direct count under phase contrast microscopy.
Chick embryo ciliary ganglion cultures were created and maintained according to the method set forth in (Hughes et al., 1988, Nature 335 : 70-73).
Biological activity of recombinant CNTF was assayed on explants of chick embryo dorsal root ganglia (DRG) and dissociated cultures of ciliary ganglion (CG) neurons as described in Lindsay and Rohrer (1985, Devel. Biol 112:30-48). Briefly, DRG were dissected from chick embryos of 10 days incubation (E10) and 5-6 ganglia were explanted in 1 ml of a collagen gel matrix in 35 mm tissue culture dishes. After the gel had set, 1 ml of tissue culture growth medium F14 (Imperial Labs., U.K.) supplemented with 5% heat-inactivated horse serum (GIBCO) was added before adding human CNTF (1-20 l) to a final concentration of 100 pg to 100 ng/ml. CG were dissected from E8 chick embryos and incubated for 30 min in 0.25% trypsin (Worthington) in calcium- and magnesium-free phosphate buffered saline. The ganglia were then washed three times in F14 medium containing 5% horse serum before being dissociated to a single cell suspension by trituration through the bore of a Pasteur pipette. Enrichment for CG neurons was achieved by plating the cell suspension for 3.5 hr in a 60 mm dish, during which non-neuronal cells (fibroblasts and Schwann cells) attached firmly to the plastic while phase-bright neurons remained in suspension. The purified neurons were plated on polyornithine-laminin-coated 35 mm culture dishes at 8,000-10,000 neurons/dish. In explant cultures CNTF activity was determined by assessing the extent of fiber outgrowth in treated cultures compared to controls. Fiber outgrowth was scored on a scale of 0 to 5+, by comparing cultures to photographs of a dose-response of explanted DRG and NGF. In dissociated CG neuron cultures, CNTF activity was determined by counting at 48 hr the percentage of process-bearing neurons in control and CNTF-treated cultures. In all cases results were derived from triplicate cultures.

Row | Molecule | increase in NF content versus untreated controls [1] | μg protein dish [2] | effect on / survival of GABAergic neurons [3] | increase in AchE-positive neurons versus untreated controls [4] | CAT Activity [5] | Protein [5] | increase in CAT activity [6] | CNTF activity in DRG assay [7] | maximum fiber outgrowth at saturating levels, relative to saturating levels of NGF (E10 chick DRG) | activity towards chick ciliary neurons compared with rat CNTF [8]
1 | B1 | did not produced any significant effect | 20 μg protein dish | not able to detect any effect | small effect | 621.25 ± 33.59 CPM/dish | 38 μg/dish | no effect | – | – | –
2 | B2 | – | – | – | – | – | – | – | CNTF activity | 50-75% | as active as rat CNTF
